Measurements: patent publication US20140271457A1 (AbbVie / Abbott, published 2014)

Legend:
[1] = target: Recombinant Human TNF-α/TNFSF1A (human, UniProt P01375 77-233); test: cell-based or functional assay
Recombinant Human β-NGF = Recombinant Human β-NGF (human, UniProt P01138 122-241); test: cell-based or functional assay
Recombinant Human β-NGF, sequence (P01138 122-241 limits assumed): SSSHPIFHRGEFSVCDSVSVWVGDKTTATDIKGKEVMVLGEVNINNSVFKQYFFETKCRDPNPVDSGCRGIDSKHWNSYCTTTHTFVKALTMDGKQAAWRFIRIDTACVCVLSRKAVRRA

Recombinant Human TNF-α/TNFSF1A, sequence (P01375 77-233 limits assumed): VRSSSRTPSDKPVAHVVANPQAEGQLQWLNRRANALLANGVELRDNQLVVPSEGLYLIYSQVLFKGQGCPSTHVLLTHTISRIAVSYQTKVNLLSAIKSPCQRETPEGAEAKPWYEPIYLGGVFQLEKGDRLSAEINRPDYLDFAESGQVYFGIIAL

B1: DVD2819 (bispecific antibody, IgG1)
VH: EVQLVESGGGLVQPGGSLRLSCAASGFSLTNNNVNWVRQAPGKGLEWVGGVWAGGATDYNSALKSRFTISRDNSKNTAYLQMNSLRAEDTAVYYCARDGGYSSSTLYAMDAWGQGTLVTVSSASTKGPEVQLVQSGAEVKKPGASVKVSCKASGYTFANYGIIWVRQAPGQGLEWMGWINTYTGKPTYAQKFQGRVTMTTDTSTSTAYMELSSLRSEDTAVYYCARKLFTTMDVTDNAMDYWGQGTTVTVSS
VL: DIQMTQSPSSLSASVGDRVTITCRASEDIYNALAWYQQKPGKAPKLLIYNTDTLHTGVPSRFSGSGSGTDYTLTISSLQPEDFATYFCQHYFHYPRTFGQGTKVEIKRTVAAPDIQMTQSPSSLSASVGDRVTITCRASQDISQYLNWYQQKPGKAPKLLIYYTSRLQSGVPSRFSGSGSGTDFTLTISSLQPEDFATYFCQQGNTWPPTFGQGTKLEIKR
C-Terminal VD huTNFα Neutralization Assay IC50 [1]: 0.279 nM
N-Terminal VD NGF Neutralization Assay IC50 (Recombinant Human β-NGF): 0.006 nM

B2: DVD2821 (bispecific antibody, IgG1)
VH: EVQLVESGGGLVQPGGSLRLSCAASGFSLTNNNVNWVRQAPGKGLEWVGGVWAGGATDYNSALKSRFTISRDNSKNTAYLQMNSLRAEDTAVYYCARDGGYSSSTLYAMDAWGQGTLVTVSSASTKGPEVQLVQSGAEVKKPGASVKVSCKASGYTFANYGIIWVRQAPGQGLEWMGWINTYTGKPTYAQKFQGRVTMTTDTSTSTAYMELSSLRSEDTAVYYCARKLFTTMDVTDNAMDYWGQGTTVTVSS
VL: DIQMTQSPSSLSASVGDRVTITCRASEDIYNALAWYQQKPGKAPKLLIYNTDTLHTGVPSRFSGSGSGTDYTLTISSLQPEDFATYFCQHYFHYPRTFGQGTKVEIKRTVAAPSVFIFPPDIQMTQSPSSLSASVGDRVTITCRASQDISQYLNWYQQKPGKAPKLLIYYTSRLQSGVPSRFSGSGSGTDFTLTISSLQPEDFATYFCQQGNTWPPTFGQGTKLEIKR
C-Terminal VD huTNFα Neutralization Assay IC50 [1]: 0.09 nM
N-Terminal VD NGF Neutralization Assay IC50 (Recombinant Human β-NGF): 0.011 nM

B3: DVD2769 (bispecific antibody, IgG1)
VH: EVQLVESGGGLVQPGGSLRLSCAASGFSLTNNNVNWVRQAPGKGLEWVGGVWAGGATDYNSALKSRFTISRDNSKNTAYLQMNSLRAEDTAVYYCARDGGYSSSTLYAMDAWGQGTLVTVSSASTKGPEVQLVESGGGLVQPGGSLRLSCAASGFTFSNYGVEWVRQAPGKGLEWVSGIWADGSTHYADTVKSRFTISRDNSKNTLYLQMNSLRAEDTAVYYCAREWQHGPVAYWGQGTLVTVSS
VL: DIQMTQSPSSLSASVGDRVTITCRASEDIYNALAWYQQKPGKAPKLLIYNTDTLHTGVPSRFSGSGSGTDYTLTISSLQPEDFATYFCQHYFHYPRTFGQGTKVEIKRTVAAPDIQMTQSPSSLSASVGDRVTITCKASQLVSSAVAWYQQKPGKAPKLLIYWASTLHTGVPSRFSGSGSGTDFTLTISSLQPEDFATYYCQQHYRTPFTFGQGTKLEIKR
C-Terminal VD huTNFα Neutralization Assay IC50 [1]: 0.222 nM
N-Terminal VD NGF Neutralization Assay IC50 (Recombinant Human β-NGF): 0.001 nM

B4: DVD2772 (bispecific antibody, IgG1)
VH: EVQLVESGGGLVQPGGSLRLSCAASGFSLTNNNVNWVRQAPGKGLEWVGGVWAGGATDYNSALKSRFTISRDNSKNTAYLQMNSLRAEDTAVYYCARDGGYSSSTLYAMDAWGQGTLVTVSSASTKGPSVFPLAPEVQLVESGGGLVQPGGSLRLSCAASGFTFSNYGVEWVRQAPGKGLEWVSGIWADGSTHYADTVKSRFTISRDNSKNTLYLQMNSLRAEDTAVYYCAREWQHGPVAYWGQGTLVTVSS
VL: DIQMTQSPSSLSASVGDRVTITCRASEDIYNALAWYQQKPGKAPKLLIYNTDTLHTGVPSRFSGSGSGTDYTLTISSLQPEDFATYFCQHYFHYPRTFGQGTKVEIKRTVAAPDIQMTQSPSSLSASVGDRVTITCKASQLVSSAVAWYQQKPGKAPKLLIYWASTLHTGVPSRFSGSGSGTDFTLTISSLQPEDFATYYCQQHYRTPFTFGQGTKLEIKR
C-Terminal VD huTNFα Neutralization Assay IC50 [1]: 0.128 nM
N-Terminal VD NGF Neutralization Assay IC50 (Recombinant Human β-NGF): 0.04 nM

B5: DVD2771 (bispecific antibody, IgG1)
VH: EVQLVESGGGLVQPGGSLRLSCAASGFSLTNNNVNWVRQAPGKGLEWVGGVWAGGATDYNSALKSRFTISRDNSKNTAYLQMNSLRAEDTAVYYCARDGGYSSSTLYAMDAWGQGTLVTVSSASTKGPEVQLVESGGGLVQPGGSLRLSCAASGFTFSNYGVEWVRQAPGKGLEWVSGIWADGSTHYADTVKSRFTISRDNSKNTLYLQMNSLRAEDTAVYYCAREWQHGPVAYWGQGTLVTVSS
VL: DIQMTQSPSSLSASVGDRVTITCRASEDIYNALAWYQQKPGKAPKLLIYNTDTLHTGVPSRFSGSGSGTDYTLTISSLQPEDFATYFCQHYFHYPRTFGQGTKVEIKRTVAAPSVFIFPPDIQMTQSPSSLSASVGDRVTITCKASQLVSSAVAWYQQKPGKAPKLLIYWASTLHTGVPSRFSGSGSGTDFTLTISSLQPEDFATYYCQQHYRTPFTFGQGTKLEIKR
C-Terminal VD huTNFα Neutralization Assay IC50 [1]: 0.06 nM
N-Terminal VD NGF Neutralization Assay IC50 (Recombinant Human β-NGF): 0.037 nM

B6: DVD2768 (bispecific antibody, IgG1)
VH: EVQLVESGGGLVQPGGSLRLSCAASGFSLTNNNVNWVRQAPGKGLEWVGGVWAGGATDYNSALKSRFTISRDNSKNTAYLQMNSLRAEDTAVYYCARDGGYSSSTLYAMDAWGQGTLVTVSSGGGGSGGGGSEVQLVESGGGLVQPGGSLRLSCAASGFTFSNYGVEWVRQAPGKGLEWVSGIWADGSTHYADTVKSRFTISRDNSKNTLYLQMNSLRAEDTAVYYCAREWQHGPVAYWGQGTLVTVSS
VL: DIQMTQSPSSLSASVGDRVTITCRASEDIYNALAWYQQKPGKAPKLLIYNTDTLHTGVPSRFSGSGSGTDYTLTISSLQPEDFATYFCQHYFHYPRTFGQGTKVEIKRGGSGGGGSGDIQMTQSPSSLSASVGDRVTITCKASQLVSSAVAWYQQKPGKAPKLLIYWASTLHTGVPSRFSGSGSGTDFTLTISSLQPEDFATYYCQQHYRTPFTFGQGTKLEIKR
C-Terminal VD huTNFα Neutralization Assay IC50 [1]: 0.189 nM
N-Terminal VD NGF Neutralization Assay IC50 (Recombinant Human β-NGF): 0.003 nM

B7: DVD2813 (bispecific antibody, IgG1)
VH: EVQLVQSGAEVKKPGASVKVSCKASGYTFANYGIIWVRQAPGQGLEWMGWINTYTGKPTYAQKFQGRVTMTTDTSTSTAYMELSSLRSEDTAVYYCARKLFTTMDVTDNAMDYWGQGTTVTVSSGGGGSGGGGSEVQLVESGGGLVQPGGSLRLSCAASGFSLTNNNVNWVRQAPGKGLEWVGGVWAGGATDYNSALKSRFTISRDNSKNTAYLQMNSLRAEDTAVYYCARDGGYSSSTLYAMDAWGQGTLVTVSS
VL: DIQMTQSPSSLSASVGDRVTITCRASQDISQYLNWYQQKPGKAPKLLIYYTSRLQSGVPSRFSGSGSGTDFTLTISSLQPEDFATYFCQQGNTWPPTFGQGTKLEIKRGGSGGGGSGDIQMTQSPSSLSASVGDRVTITCRASEDIYNALAWYQQKPGKAPKLLIYNTDTLHTGVPSRFSGSGSGTDYTLTISSLQPEDFATYFCQHYFHYPRTFGQGTKVEIKR
N-Terminal VD huTNFα Neutralization Assay IC50 [1]: 0.016 nM
C-Terminal VD NGF Neutralization Assay IC50 (Recombinant Human β-NGF): 7.46 nM

B8: DVD2818 (bispecific antibody, IgG1)
VH: EVQLVESGGGLVQPGGSLRLSCAASGFSLTNNNVNWVRQAPGKGLEWVGGVWAGGATDYNSALKSRFTISRDNSKNTAYLQMNSLRAEDTAVYYCARDGGYSSSTLYAMDAWGQGTLVTVSSGGGGSGGGGSEVQLVQSGAEVKKPGASVKVSCKASGYTFANYGIIWVRQAPGQGLEWMGWINTYTGKPTYAQKFQGRVTMTTDTSTSTAYMELSSLRSEDTAVYYCARKLFTTMDVTDNAMDYWGQGTTVTVSS
VL: DIQMTQSPSSLSASVGDRVTITCRASEDIYNALAWYQQKPGKAPKLLIYNTDTLHTGVPSRFSGSGSGTDYTLTISSLQPEDFATYFCQHYFHYPRTFGQGTKVEIKRGGSGGGGSGDIQMTQSPSSLSASVGDRVTITCRASQDISQYLNWYQQKPGKAPKLLIYYTSRLQSGVPSRFSGSGSGTDFTLTISSLQPEDFATYFCQQGNTWPPTFGQGTKLEIKR
C-Terminal VD huTNFα Neutralization Assay IC50 [1]: 0.072 nM
N-Terminal VD NGF Neutralization Assay IC50 (Recombinant Human β-NGF): 0.003 nM

B9: DVD2814 (bispecific antibody, IgG1)
VH: EVQLVQSGAEVKKPGASVKVSCKASGYTFANYGIIWVRQAPGQGLEWMGWINTYTGKPTYAQKFQGRVTMTTDTSTSTAYMELSSLRSEDTAVYYCARKLFTTMDVTDNAMDYWGQGTTVTVSSASTKGPEVQLVESGGGLVQPGGSLRLSCAASGFSLTNNNVNWVRQAPGKGLEWVGGVWAGGATDYNSALKSRFTISRDNSKNTAYLQMNSLRAEDTAVYYCARDGGYSSSTLYAMDAWGQGTLVTVSS
VL: DIQMTQSPSSLSASVGDRVTITCRASQDISQYLNWYQQKPGKAPKLLIYYTSRLQSGVPSRFSGSGSGTDFTLTISSLQPEDFATYFCQQGNTWPPTFGQGTKLEIKRTVAAPDIQMTQSPSSLSASVGDRVTITCRASEDIYNALAWYQQKPGKAPKLLIYNTDTLHTGVPSRFSGSGSGTDYTLTISSLQPEDFATYFCQHYFHYPRTFGQGTKVEIKR
N-Terminal VD huTNFα Neutralization Assay IC50 [1]: 0.012 nM
C-Terminal VD NGF Neutralization Assay IC50 (Recombinant Human β-NGF): 0.019 nM

B10: DVD2816 (bispecific antibody, IgG1)
VH: EVQLVQSGAEVKKPGASVKVSCKASGYTFANYGIIWVRQAPGQGLEWMGWINTYTGKPTYAQKFQGRVTMTTDTSTSTAYMELSSLRSEDTAVYYCARKLFTTMDVTDNAMDYWGQGTTVTVSSASTKGPEVQLVESGGGLVQPGGSLRLSCAASGFSLTNNNVNWVRQAPGKGLEWVGGVWAGGATDYNSALKSRFTISRDNSKNTAYLQMNSLRAEDTAVYYCARDGGYSSSTLYAMDAWGQGTLVTVSS
VL: DIQMTQSPSSLSASVGDRVTITCRASQDISQYLNWYQQKPGKAPKLLIYYTSRLQSGVPSRFSGSGSGTDFTLTISSLQPEDFATYFCQQGNTWPPTFGQGTKLEIKRTVAAPSVFIFPPDIQMTQSPSSLSASVGDRVTITCRASEDIYNALAWYQQKPGKAPKLLIYNTDTLHTGVPSRFSGSGSGTDYTLTISSLQPEDFATYFCQHYFHYPRTFGQGTKVEIKR
N-Terminal VD huTNFα Neutralization Assay IC50 [1]: 0.009 nM
C-Terminal VD NGF Neutralization Assay IC50 (Recombinant Human β-NGF): 2.89 nM

B11: DVD2817 (bispecific antibody, IgG1)
VH: EVQLVQSGAEVKKPGASVKVSCKASGYTFANYGIIWVRQAPGQGLEWMGWINTYTGKPTYAQKFQGRVTMTTDTSTSTAYMELSSLRSEDTAVYYCARKLFTTMDVTDNAMDYWGQGTTVTVSSASTKGPSVFPLAPEVQLVESGGGLVQPGGSLRLSCAASGFSLTNNNVNWVRQAPGKGLEWVGGVWAGGATDYNSALKSRFTISRDNSKNTAYLQMNSLRAEDTAVYYCARDGGYSSSTLYAMDAWGQGTLVTVSS
VL: DIQMTQSPSSLSASVGDRVTITCRASQDISQYLNWYQQKPGKAPKLLIYYTSRLQSGVPSRFSGSGSGTDFTLTISSLQPEDFATYFCQQGNTWPPTFGQGTKLEIKRTVAAPDIQMTQSPSSLSASVGDRVTITCRASEDIYNALAWYQQKPGKAPKLLIYNTDTLHTGVPSRFSGSGSGTDYTLTISSLQPEDFATYFCQHYFHYPRTFGQGTKVEIKR
N-Terminal VD huTNFα Neutralization Assay IC50 [1]: 0.013 nM
C-Terminal VD NGF Neutralization Assay IC50 (Recombinant Human β-NGF): 1.27 nM
